Measured values: article PMC3796545, “Protein-Protein Interactions as a Strategy towards Protein-Specific Drug Design: The Example of Ataxin-1” (PLoS ONE, 2013)

B1: L-CICp [human] / ATX1 AXH (residues A567-K689 of human ATX1) [human] (parent complex)
chain 1: VFPWHSLVPFLAPSQ
chain 2: GAMAPPTLPPYFMKGSIIQLANGELKKVEDLKTEDFIQSAEISNDLKIDSSTVERIEDSHSPGVAVIQFAVGEHRAQVSVEVLVEYPFFVFGQGWSSCCPERTSQLFDLPCSKLSVGDVCISLTLK

Variants of: B1
Assay: ITC; parent: 30 nM

| Kd | Variant |
| --- | --- |
| 0.04 µM | chain 1 VFAWHSLVPFLAPSQ [chain 1 P3A] |
| 0.05 µM | chain 1 VFPWHSLVPFAAPSQ [chain 1 L11A] |
| 0.07 µM | chain 1 VFPWHSLAPFLAPSQ [chain 1 V8A] |
| 0.02 µM | chain 1 VFPWHSLVPFLAASQ [chain 1 P13A] |
| 0.02 µM | chain 1 AFPWHSLVPFLAPSQ [chain 1 V1A] |
| 2.6 µM | chain 1 VFPAHSLVPFLAPSQ [chain 1 W4A] |
| 0.04 µM | chain 1 VFPWHSLVAFLAPSQ [chain 1 P9A] |
| 0.06 µM | chain 1 VFPWHSLVPALAPSQ [chain 1 F10A] |
| 0.01 µM | chain 1 VFPWHALVPFLAPSQ [chain 1 S6A] |
| 0.05 µM | chain 1 VFPWASLVPFLAPSQ [chain 1 H5A] |
| 0.5 µM | chain 1 VFPWHSAVPFLAPSQ [chain 1 L7A] |
| 0.03 µM | chain 1 VAPWHSLVPFLAPSQ [chain 1 F2A] |
| 0.02 µM | chain 1 VFPWHSLVPFLGPSQ [chain 1 A12G] |
